According to paper PMC10925414:

Legend:
[1] = molecular target: γC3 EC1-EC4 wild type (PcdhγC3 EC1-EC4 ectodomain fragment) (mouse); test: AUC; sedimentation equilibrium of single proteins; 1.1, 0.73 and 0.37 mg/mL; 10 mM Tris, 150 mM NaCl, 3 mM CaCl2, pH 8.0, 250 mM imidazole; 25°C; 11000-20000 rpm; interference at 675 nm; global fit in SedPhat; dimer to monomers
[2] = molecular target: γC3 protocadherin EC1-EC4 (Mus musculus); conditions: cited from earlier work

Row | Kd [1] | Substance | Kd [2]
1 | 115 µM | γC3 EC1-EC4 wild type (PcdhγC3 EC1-EC4 ectodomain fragment) (domain or fragment) | 
2 |  | γC3 protocadherin EC1-EC4 (from UniProt Q9UN70) | 115 µM
